Our source for the EC50 values is patent EP4592315A1 (Biotheus Inc., dated 2024).

One test has as its target T1, human 4-1BB (human, UniProt Q07011 24-255).
T1 construct: whole, on cells; also called h4-1BB; CD137
The test can be described thus: flow cytometry on CHOS-h4-1BB cells (overexpressing human 4-1BB), anti-human IgG-Fc PE. On the technique in general: In flow cytometry, cells or beads pass a laser one at a time.

Another test addresses T2, human FcγRIIb (human, UniProt P31994 43-310).
T2 construct: whole, on cells; also called hCD32b; CD32b
T2 sequence (looked up): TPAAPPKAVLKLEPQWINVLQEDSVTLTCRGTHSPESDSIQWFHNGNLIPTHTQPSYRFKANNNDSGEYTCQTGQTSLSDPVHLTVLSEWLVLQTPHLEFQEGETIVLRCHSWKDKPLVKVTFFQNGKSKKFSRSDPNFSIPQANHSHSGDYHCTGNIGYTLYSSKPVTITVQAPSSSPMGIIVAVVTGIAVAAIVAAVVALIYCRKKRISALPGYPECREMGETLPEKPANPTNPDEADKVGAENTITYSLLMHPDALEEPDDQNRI
Description: flow cytometry on CHOS-hCD32b cells (overexpressing human FcγRIIb), anti-human IgG-Fc PE.

T1 sequence (Q07011 24-255): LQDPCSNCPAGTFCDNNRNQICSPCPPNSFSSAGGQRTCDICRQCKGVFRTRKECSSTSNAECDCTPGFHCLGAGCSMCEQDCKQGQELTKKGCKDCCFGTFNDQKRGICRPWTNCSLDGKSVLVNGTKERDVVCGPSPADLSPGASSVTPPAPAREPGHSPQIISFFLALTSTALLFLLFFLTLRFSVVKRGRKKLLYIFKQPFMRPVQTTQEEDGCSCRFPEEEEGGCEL

B1: HER2xHER2x4-1BB-1 (bispecific antibody, human IgG1, kappa)
heavy 1: not shown
light 1: DIQMTQSPSSLSASVGDRVTITCRASQSVQGAVAWYQQKPGKAPKLLIYSASFLYSGVPSRFSGSRSGTDFTLTISSLQPEDFATYYCQQHSTTPPTFGQGTKVEIKRTVAAPSVFIFPPSDEQLKSGRASVVCLLNNFYPREAKVQWKVDNALQSGNSQESVTEQDSKDSTYSLSSRLQLSKADYEKHKVYACEVTHQGLSSPVTKSFNRGEC
heavy 2: not shown
light 2: DIQMTQSPSSLSASVGDRVTITCKASQDVSIGVAWYQQKPGKAPKLLIYSASYRYTGVPSRFSGSGSGTDFTLTISSLQPEDFATYYCQQYYIYPYTFGQGTKVEIKRTVAAPSVFIFPPSDEELKSGTASVQCLLNNFYPREAKVQWKVDNALQSGNSQESVTEQDSKDSTYSLSSELTLSKADYEKHKVYACEVTHQGLSSPVTKSFNRGEC
notes: also called HER2×HER2×4-1BB-1; HER2 × HER2 × 4-1BB-1
Take B1: the EC50 (in general, the concentration at which the effect is half-maximal) worked out at 6.99 nM in the test with human 4-1BB and 1.06 nM in the test with human FcγRIIb.

B2: Urelumab (antibody, human IgG4 S228P, kappa)
heavy: not shown
light: not shown
notes: also called Urelumab Analog; copies: 2 + 2
In the case of B2, the EC50 with human 4-1BB is 0.316 nM.
